Reference: the supplement of paper PMC9112550, “Optimization of the antimicrobial peptide Bac7 by deep mutational scanning” (BMC Biology, 2022)

System: Escherichia coli TOP10
Assay: shrunken log2 fold change of peptide-encoding DNA abundance (4.5 h post-induction vs induction); higher = less antimicrobial activity (less host growth inhibition)
Settings: time post-induction: 4.5 h; library: site-saturation at positions 5, 18, 19, 20
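Further: peptides expressed intracellularly from a pBAD plasmid library in pooled LB shake-flask culture, induced with 0.3% L-arabinose, DNA abundance read by NGS, three biological replicates, DESeq2 with apeglm shrinkage.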

Row | Sequence | shrunken log2 fold change
1 | RRIRQRPPRLPRPRPRPCVKPRP | -0.0496
2 | RRIRQRPPRLPRPRPRPCYSPRP | -0.0444
3 | RRIRQRPPRLPRPRPRPDAAPRP | 1.08
4 | RRIRQRPPRLPRPRPRPDCCPRP | -0.0188
5 | RRIRQRPPRLPRPRPRPDCIPRP | -0.0167
6 | RRIRQRPPRLPRPRPRPDCKPRP | -0.0311
7 | RRIRQRPPRLPRPRPRPDDEPRP | -0.0396
8 | RRIRQRPPRLPRPRPRPDDWPRP | 0.0952
9 | RRIRQRPPRLPRPRPRPDFPPRP | 0.065
10 | RRIRQRPPRLPRPRPRPDFRPRP | 0.0259
11 | RRIRQRPPRLPRPRPRPDGNPRP | -0.26
12 | RRIRQRPPRLPRPRPRPDINPRP | -0.412
13 | RRIRQRPPRLPRPRPRPDIVPRP | -0.0164
14 | RRIRQRPPRLPRPRPRPDKMPRP | 0.021
15 | RRIRQRPPRLPRPRPRPDLRPRP | -0.0102
16 | RRIRQRPPRLPRPRPRPDMDPRP | -0.0896
17 | RRIRQRPPRLPRPRPRPDMRPRP | 0.0308
18 | RRIRQRPPRLPRPRPRPDNPPRP | -0.0388
19 | RRIRQRPPRLPRPRPRPDRPPRP | 0.00639
20 | RRIRQRPPRLPRPRPRPDSAPRP | -0.029
21 | RRIRQRPPRLPRPRPRPDSSPRP | 0.00797
22 | RRIRQRPPRLPRPRPRPDSVPRP | -0.0518
23 | RRIRQRPPRLPRPRPRPDTHPRP | -0.347
24 | RRIRQRPPRLPRPRPRPDTKPRP | -0.00171
25 | RRIRQRPPRLPRPRPRPDVHPRP | -0.304

Row | Sequence | shrunken log2 fold change
26 | RRIRQRPPRLPRPRPRPDVWPRP | -0.0325
27 | RRIRQRPPRLPRPRPRPDYMPRP | -0.453
28 | RRIRQRPPRLPRPRPRPEAQPRP | 0.285
29 | RRIRQRPPRLPRPRPRPEEAPRP | 0.188
30 | RRIRQRPPRLPRPRPRPEFFPRP | 0.0969
31 | RRIRQRPPRLPRPRPRPEGAPRP | 0.852
32 | RRIRQRPPRLPRPRPRPEGCPRP | -0.0749
33 | RRIRQRPPRLPRPRPRPEGVPRP | 0.381
34 | RRIRQRPPRLPRPRPRPEHIPRP | -0.0129
35 | RRIRQRPPRLPRPRPRPEKAPRP | -0.00536
36 | RRIRQRPPRLPRPRPRPELCPRP | 0.177
37 | RRIRQRPPRLPRPRPRPELDPRP | 0.0346
38 | RRIRQRPPRLPRPRPRPELGPRP | 0.0387
39 | RRIRQRPPRLPRPRPRPELTPRP | 0.232
40 | RRIRQRPPRLPRPRPRPENAPRP | 0.242
41 | RRIRQRPPRLPRPRPRPENEPRP | 0.0608
42 | RRIRQRPPRLPRPRPRPEQGPRP | 0.0169
43 | RRIRQRPPRLPRPRPRPERKPRP | 0.0453
44 | RRIRQRPPRLPRPRPRPESFPRP | 0.0552
45 | RRIRQRPPRLPRPRPRPESQPRP | -0.0174
46 | RRIRQRPPRLPRPRPRPETHPRP | 0.0176
47 | RRIRQRPPRLPRPRPRPEVPPRP | -0.00133
48 | RRIRQRPPRLPRPRPRPEVQPRP | -0.0138
49 | RRIRQRPPRLPRPRPRPEWHPRP | 0.33
50 | RRIRQRPPRLPRPRPRPEWPPRP | -0.0954

Row | Sequence | shrunken log2 fold change
51 | RRIRQRPPRLPRPRPRPEYCPRP | -0.0411
52 | RRIRQRPPRLPRPRPRPFEFPRP | -0.109
53 | RRIRQRPPRLPRPRPRPFESPRP | -0.00719
54 | RRIRQRPPRLPRPRPRPFEYPRP | -0.0368
55 | RRIRQRPPRLPRPRPRPFGIPRP | -0.138
56 | RRIRQRPPRLPRPRPRPFGTPRP | -0.1
57 | RRIRQRPPRLPRPRPRPFIHPRP | -0.876
58 | RRIRQRPPRLPRPRPRPFIIPRP | 0.043
59 | RRIRQRPPRLPRPRPRPFIYPRP | -0.372
60 | RRIRQRPPRLPRPRPRPFKAPRP | -0.059
61 | RRIRQRPPRLPRPRPRPFLQPRP | -0.194
62 | RRIRQRPPRLPRPRPRPFMKPRP | -0.0158
63 | RRIRQRPPRLPRPRPRPFMQPRP | -0.259
64 | RRIRQRPPRLPRPRPRPFNGPRP | -0.3
65 | RRIRQRPPRLPRPRPRPFNSPRP | -0.3
66 | RRIRQRPPRLPRPRPRPFPSPRP | -0.0654
67 | RRIRQRPPRLPRPRPRPFQLPRP | -0.00805
68 | RRIRQRPPRLPRPRPRPFRDPRP | -0.117
69 | RRIRQRPPRLPRPRPRPFRGPRP | 0.113
70 | RRIRQRPPRLPRPRPRPFRPPRP | -0.303
71 | RRIRQRPPRLPRPRPRPFSFPRP | -0.272
72 | RRIRQRPPRLPRPRPRPFTFPRP | -0.249
73 | RRIRQRPPRLPRPRPRPFTQPRP | -0.0608
74 | RRIRQRPPRLPRPRPRPFWFPRP | 0.0862
75 | RRIRQRPPRLPRPRPRPFYGPRP | -0.00903

Row | Sequence | shrunken log2 fold change
76 | RRIRQRPPRLPRPRPRPGCPPRP | 0.414
77 | RRIRQRPPRLPRPRPRPGEEPRP | 0.0331
78 | RRIRQRPPRLPRPRPRPGEGPRP | 0.00168
79 | RRIRQRPPRLPRPRPRPGERPRP | 0.0849
80 | RRIRQRPPRLPRPRPRPGFKPRP | -0.534
81 | RRIRQRPPRLPRPRPRPGFSPRP | 0.00737
82 | RRIRQRPPRLPRPRPRPGHHPRP | 0.245
83 | RRIRQRPPRLPRPRPRPGLYPRP | 0.224
84 | RRIRQRPPRLPRPRPRPGMEPRP | 0.0952
85 | RRIRQRPPRLPRPRPRPGMKPRP | -0.0822
86 | RRIRQRPPRLPRPRPRPGMPPRP | -0.0642
87 | RRIRQRPPRLPRPRPRPGMSPRP | 0.285
88 | RRIRQRPPRLPRPRPRPGNAPRP | 0.322
89 | RRIRQRPPRLPRPRPRPGNEPRP | 0.177
90 | RRIRQRPPRLPRPRPRPGRVPRP | 0.422
91 | RRIRQRPPRLPRPRPRPGSCPRP | 0.192
92 | RRIRQRPPRLPRPRPRPGSFPRP | -0.0531
93 | RRIRQRPPRLPRPRPRPGVPPRP | 0.154
94 | RRIRQRPPRLPRPRPRPGYEPRP | 0.00854
95 | RRIRQRPPRLPRPRPRPGYGPRP | -0.131
96 | RRIRQRPPRLPRPRPRPGYMPRP | -0.131
97 | RRIRQRPPRLPRPRPRPGYNPRP | -0.185
98 | RRIRQRPPRLPRPRPRPGYRPRP | -0.354
99 | RRIRQRPPRLPRPRPRPGYSPRP | -0.00603
100 | RRIRQRPPRLPRPRPRPHAGPRP | -0.084

Row | Sequence | shrunken log2 fold change
101 | RRIRQRPPRLPRPRPRPHCDPRP | 0.0241
102 | RRIRQRPPRLPRPRPRPHEDPRP | 0.0107
103 | RRIRQRPPRLPRPRPRPHEHPRP | 0.0439
104 | RRIRQRPPRLPRPRPRPHEYPRP | 0.0128
105 | RRIRQRPPRLPRPRPRPHFIPRP | -0.328
106 | RRIRQRPPRLPRPRPRPHFWPRP | -0.0983
107 | RRIRQRPPRLPRPRPRPHHPPRP | 0.00343
108 | RRIRQRPPRLPRPRPRPHHTPRP | -0.0489
109 | RRIRQRPPRLPRPRPRPHHWPRP | -0.0737
110 | RRIRQRPPRLPRPRPRPHKPPRP | -0.0272
111 | RRIRQRPPRLPRPRPRPHLTPRP | -0.016
112 | RRIRQRPPRLPRPRPRPHMDPRP | -1.07
113 | RRIRQRPPRLPRPRPRPHMLPRP | -1.18
114 | RRIRQRPPRLPRPRPRPHPGPRP | 0.125
115 | RRIRQRPPRLPRPRPRPHRMPRP | -0.373
116 | RRIRQRPPRLPRPRPRPHSCPRP | -0.194
117 | RRIRQRPPRLPRPRPRPHTHPRP | -0.342
118 | RRIRQRPPRLPRPRPRPHTRPRP | 0.107
119 | RRIRQRPPRLPRPRPRPHVWPRP | 0.03
120 | RRIRQRPPRLPRPRPRPHYQPRP | -0.0204
121 | RRIRQRPPRLPRPRPRPHYTPRP | -0.509
122 | RRIRQRPPRLPRPRPRPIAKPRP | -0.00229
123 | RRIRQRPPRLPRPRPRPIAYPRP | -0.133
124 | RRIRQRPPRLPRPRPRPICNPRP | -0.211
125 | RRIRQRPPRLPRPRPRPIEPPRP | -0.0381

Row | Sequence | shrunken log2 fold change
126 | RRIRQRPPRLPRPRPRPIGKPRP | 0.0819
127 | RRIRQRPPRLPRPRPRPIINPRP | -0.235
128 | RRIRQRPPRLPRPRPRPIKHPRP | -0.12
129 | RRIRQRPPRLPRPRPRPILDPRP | 0.0277
130 | RRIRQRPPRLPRPRPRPILMPRP | 0.0271
131 | RRIRQRPPRLPRPRPRPILPPRP | 0.0747
132 | RRIRQRPPRLPRPRPRPINCPRP | -0.384
133 | RRIRQRPPRLPRPRPRPIRDPRP | -0.161
134 | RRIRQRPPRLPRPRPRPISMPRP | 0.0161
135 | RRIRQRPPRLPRPRPRPIVKPRP | -0.108
136 | RRIRQRPPRLPRPRPRPIYFPRP | -0.115
137 | RRIRQRPPRLPRPRPRPKANPRP | 0.0666
138 | RRIRQRPPRLPRPRPRPKDIPRP | 0.0266
139 | RRIRQRPPRLPRPRPRPKENPRP | 0.168
140 | RRIRQRPPRLPRPRPRPKEPPRP | 0.0201
141 | RRIRQRPPRLPRPRPRPKETPRP | 0.00762
142 | RRIRQRPPRLPRPRPRPKGLPRP | 0.0353
143 | RRIRQRPPRLPRPRPRPKHCPRP | 0.0753
144 | RRIRQRPPRLPRPRPRPKKWPRP | -0.0403
145 | RRIRQRPPRLPRPRPRPKMAPRP | 0.12
146 | RRIRQRPPRLPRPRPRPKNEPRP | -0.136
147 | RRIRQRPPRLPRPRPRPKQGPRP | 0.401
148 | RRIRQRPPRLPRPRPRPKQRPRP | 0.0443
149 | RRIRQRPPRLPRPRPRPKQSPRP | -0.0143
150 | RRIRQRPPRLPRPRPRPKTDPRP | -0.326
